{"source": "paper PMC4802596", "about": "“Using the β-glucosidase catalyzed reaction product glucose to improve the ionic liquid tolerance of β-glucosidases” (Biotechnology for Biofuels, 2016)", "key": {"[1]": {"test_system": "O=[N+]([O-])c1ccc(O[C@@H]2O[C@H](CO)[C@@H](O)[C@H](O)[C@H]2O)cc1", "test": "purified protein", "conditions": "50 mM potassium phosphate pH 7.2, 52 °C, 5 min, text b17 prints a different Km than Tables 1-3"}, "[2]": {"test_system": "O=[N+]([O-])c1ccc(O[C@@H]2O[C@H](CO)[C@H](O)[C@H](O)[C@H]2O)cc1", "test": "purified protein", "conditions": "50 mM potassium phosphate pH 7.2, 52 °C, 5 min"}}}
{"substance": "H0HC94 (Agrobacterium tumefaciens 5A)", "values": [{"measurement": "Km", "setting": "[1]", "result": "3.09 ± 0.40", "unit": "mM"}, {"measurement": "kcat", "setting": "[1]", "result": "278 ± 4", "unit": "s⁻¹"}, {"measurement": "kcat/Km", "setting": "[1]", "result": 89900, "unit": "M⁻¹ s⁻¹"}, {"measurement": "Km", "setting": "[2]", "result": "12.93 ± 2.00", "unit": "mM"}, {"measurement": "kcat", "setting": "[2]", "result": "215 ± 7", "unit": "s⁻¹"}, {"measurement": "kcat/Km", "setting": "[2]", "result": 16600, "unit": "M⁻¹ s⁻¹"}]}
